Source: patent publication US20250296995A1

Biological target: recombinant Plasmodium falciparum circumsporozoite protein (CSP) (Plasmodium falciparum) (UniProt P19597)
Assay: cell-based or functional assay

Sequence of recombinant Plasmodium falciparum circumsporozoite protein (CSP) (Plasmodium falciparum) (P19597 21-375 limits assumed): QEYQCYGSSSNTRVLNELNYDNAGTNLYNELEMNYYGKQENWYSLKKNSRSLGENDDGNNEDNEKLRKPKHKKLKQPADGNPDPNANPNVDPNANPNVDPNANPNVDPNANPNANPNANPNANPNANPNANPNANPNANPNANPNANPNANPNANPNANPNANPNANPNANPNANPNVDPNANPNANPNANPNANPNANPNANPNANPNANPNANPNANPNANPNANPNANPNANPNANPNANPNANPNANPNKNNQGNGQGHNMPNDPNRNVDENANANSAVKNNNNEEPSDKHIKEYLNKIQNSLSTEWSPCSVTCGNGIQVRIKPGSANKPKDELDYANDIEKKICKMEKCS

Binder	Geo Mean EC50 (ug/ml), ADNKA, Donor 1 [µg/mL]	Geo Mean EC50 (ug/ml), ADNKA, Donor 2 [µg/mL]	Geo Mean EC50 (ug/ml), ADNKA, Donor 3 [µg/mL]	Geo Mean EC50 (ug/ml), ADNKA, Donor 4 [µg/mL]	GeoMean EC50 (M), ADCP [M]	GeoMean EC50 (M), ADCP repeat, n=4 [M]	Mean EC50 (pM), ADCP [pM]	Mean EC50 (pM), ADCP repeat, n=4 [pM]	Mean pEC50, ADCP	Mean pEC50, ADCP repeat, n=4
AB-000338 ALE LS (antibody, human IgG1, kappa, V domains shown) VH: QVQLVESGGGVVQPGRSLRLSCAASGFSFSTYGMHWIRQVPGKGLEWVAIIWHDGSKEFYADSVKGRFTISRDNSKKKLYLQMNSLRAEDTAIYYCVKDDFDSSGHSYFHYWGQGTLVTVSS VL: GVVMTQSPLSLPVTLGQPASISCRSSQSLVHSDGNTYVHWFQQRPGQSPRRLIYKVSNRDSGVPDRFSGSGSGTDFTLKISRVEAEDVGVYYCMQGTQWWTFGQGTKVEIKR	0.0035	0.0037	0.0802	0.0214	1.18e-11	6.55e-12	11.8	6.6	10.9	11.2
AB-000338 DEA FV LS (antibody, V domains shown) VH: QVQLVESGGGVVQPGRSLRLSCAASGFSFSTYGMHWIRQVPGKGLEWVAIIWHDGSKEFYADSVKGRFTISRDNSKKKLYLQMNSLRAEDTAIYYCVKDDFDSSGHSYFHYWGQGTLVTVSS VL: GVVMTQSPLSLPVTLGQPASISCRSSQSLVHSDGNTYVHWFQQRPGQSPRRLIYKVSNRDSGVPDRFSGSGSGTDFTLKISRVEAEDVGVYYCMQGTQWWTFGQGTKVEIK	0.0087	0.0057	0.0272	0.0067	7.21e-12	–	7.2	–	11.1	–
AB-000338 LS (antibody, V domains shown) VH: QVQLVESGGGVVQPGRSLRLSCAASGFSFSTYGMHWIRQVPGKGLEWVAIIWHDGSKEFYADSVKGRFTISRDNSKKKLYLQMNSLRAEDTAIYYCVKDDFDSSGHSYFHYWGQGTLVTVSS VL: GVVMTQSPLSLPVTLGQPASISCRSSQSLVHSDGNTYVHWFQQRPGQSPRRLIYKVSNRDSGVPDRFSGSGSGTDFTLKISRVEAEDVGVYYCMQGTQWWTFGQGTKVEIK	0.0301	0.238	0.171	0.0887	9.19e-12	1.08e-11	9.2	10.8	11	11
